Data: patent publication US20190201542A1 (AbbVie / Abbott, published 2019)
Positions count from the first letter of the chain named. Values belong to the binder of their own block, whether it stands above or below them.

Key:
human ASCL1 = target: T1, human ASCL1 (human, UniProt P50553 1-236, limits assumed); assay: screen on immobilized hASCL1 or h293-hASCL1 cells
T1 construct: Transcription factor; also called hASCL1; immobilized human ASCL1
T1 sequence (looked up): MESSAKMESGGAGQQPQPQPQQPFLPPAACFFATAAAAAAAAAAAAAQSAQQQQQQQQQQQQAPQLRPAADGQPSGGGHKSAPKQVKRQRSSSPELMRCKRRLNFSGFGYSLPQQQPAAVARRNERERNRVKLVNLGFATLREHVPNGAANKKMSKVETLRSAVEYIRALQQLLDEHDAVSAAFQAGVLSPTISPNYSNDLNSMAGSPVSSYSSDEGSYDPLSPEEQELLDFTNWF

human DLL3 = target: T2, human DLL3 (human, UniProt Q9NYJ7 27-492, limits assumed); assay: screen on immobilized hDLL3 or h293-hDLL3 cells
T2 construct: also called hDLL3; DLL3 protein
T2 sequence: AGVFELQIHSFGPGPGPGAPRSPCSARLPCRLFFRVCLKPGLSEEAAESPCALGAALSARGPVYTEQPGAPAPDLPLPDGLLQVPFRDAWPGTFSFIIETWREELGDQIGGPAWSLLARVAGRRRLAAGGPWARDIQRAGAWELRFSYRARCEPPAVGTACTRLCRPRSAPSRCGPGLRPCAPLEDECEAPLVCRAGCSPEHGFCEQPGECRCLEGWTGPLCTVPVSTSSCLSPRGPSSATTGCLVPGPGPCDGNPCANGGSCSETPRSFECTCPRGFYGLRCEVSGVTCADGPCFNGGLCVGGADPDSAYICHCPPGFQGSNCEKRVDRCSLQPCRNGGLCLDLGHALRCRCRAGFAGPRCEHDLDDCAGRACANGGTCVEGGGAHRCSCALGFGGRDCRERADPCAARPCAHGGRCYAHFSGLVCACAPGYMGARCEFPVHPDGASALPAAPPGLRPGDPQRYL
Outline: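 Hybridoma supernatants from single cells of mice immunized with human DLL3 were screened after 10 days in culture. Binding by flow cytometry was scored positive when above the control. In the solid-phase ELISA, plates coated with DLL3-His at 0.5 μg/ml were probed with HRP anti-mouse IgG and TMB and read at OD 450.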

binding result (human ASCL1): binds
B1: SC72.93 (antibody, V domains shown)
VH: QVQLQQSGAELVRPGASVTLSCKASGYIFIDYEMHWVKQTPVHGLEWIGSIDPETGDTVYNQKFKGKATLTADKSSSTAYMELRSLTSEDSAVYYCSRGGLDYWGQGTTLTVSS
VL: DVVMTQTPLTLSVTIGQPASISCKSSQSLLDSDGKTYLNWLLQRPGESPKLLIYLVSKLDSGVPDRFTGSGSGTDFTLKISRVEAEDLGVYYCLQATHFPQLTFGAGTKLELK
notes: murine mAb; same VL as SC72.2

binding result (human DLL3): binds
B2: SC16.147 (antibody, V domains shown)
VH: QIQLVQSGPELTKPGETVKISCKASGYTFTDYSLHWVKQALGKGLKWMGWINTETGEPAYADDFKGRFAFSLETSASTAYLQINDLKNEDTTTYFCGIYDGYAMDYWGQGTSVTVSS
VL: DIQMTQTASSLSASLGDRVTISCRASQDINNYLNWYQQKPDGTVKLLIYYTSRLHSGVPSRFSGSGSGTDYSLTISILEQEDIATYFCQQGDTLPWTFGGGTKLEIK
notes: murine mAb

binding result (human DLL3): binds
B3: SC16.148 (antibody, V domains shown)
VH: QIQLVQSGPELKKPGETVKISCKASGYTLTNYGMNWVKQAPGKGLKWMGWINTYTGEPTYADDFKGRFAFSLETSARIVYLQINNLKNEDTATYFCAKYEAHEGFVYWGQGTLVTVSA
VL: QIVLTQSPAIMSASPGEKVTMTCSASSSVSYMYWYQQKPGSSPRLLIYDTSNLASGVPVRFSGSGSGTSYSLTISRMEAEDTATYYCQEWSNNPLTFGDGTKLELK
notes: murine mAb

binding result (human DLL3): binds
B4: SC16.138 (antibody, V domains shown)
VH: QVQLKESGPGLVAPSQSLSITCTVSGFSLTDYGVSWIRQPPGKGLEWLGVVWGGGSTYYNSALKSRLSISKDNSKSQVFLKMNSLQTDDTAMYYCAKQRGQYGAYWGQGTLVTVSA
VL: DIQMTQSPASQSASLGESVTITCLASQTIGTWLAWYQQKPGKSPQLLIYSATSLADGVPSRFSGSGSGTKFSFKISSLQAEDFVSYYCQQLYSTPWTFGGGTKLEIK
notes: murine mAb

binding result (human DLL3): binds
B5: SC16.130 (antibody, V domains shown)
VH: EVQLQQSGPELVKPGASVKMSCKASGYTFTSYVMHWVKQKPGQGLEWIGYINPYNDGTEYNEKFKGKATLTSDKSSSTAYMELSSLTSEDSAVYYCARGVYDGYSYFDYWGQGTTLTVSS
VL: DIQLTQSPASLSASVGETVTITCRASGSIHNYLAWYQQKQGKSPQLLVYNAKTLVDGVPSRFSGSGSGTQYSLKINSLQPEDFGYYYCQHFWTTPWTFGGGTKLEIK
notes: murine mAb

binding result (human DLL3): binds
B6: SC16.136 (antibody, V domains shown)
VH: EVQLQQSGPELVKPGASVKMSCKASGYTFTSYVMHWVKQKPGQGLEWIGYINPYNDGTKYNEKFKGKATLTSDKSSSTAYMELSSLTSEDSAVYYCARDRSGYEDYYGMDYWGQGTSVTVSS
VL: B5 VL with L4M, S28N, Q45H, V55A, Y85S, T93S
notes: murine mAb

binding result (human DLL3): binds
B7: SC16.133 (antibody, V domains shown)
VH: QVQLKESGPGLVAPSQSLSITCTVSGFSLTNYAVHWVRQSPGKGLEWLGVIWSDGSTDYNAAFISRLSISKDNSKSQVFFKMNSLQADDTAMYYCARKKGGWFPWFAYWGQGTLVTVSA
VL: SIVMTQTPKFLLVSAGDRVTITCKASQSVSNDVAWYQQKPGQSPKLLIYCASNRYTGVPDRFTGSGYGTDFTFTISTVQAEDLAVYFCQQDYSSPLTFGAGTKLELK
notes: murine mAb

binding result (human DLL3): binds
B8: SC16.144 (antibody, V domains shown)
VH: QIQLVQSGPELKKPGETVKISCKASGYTFTNYGMNWVKQAPGKGLKWVGWINTYTGEPTYADDFKGRFAFSLETSASTAYLQIDNLKNEDTATYFCARVGDYVGFDYWGQGTTLTVSS
VL: B7 VL with A34G, C50Y, T56N, L96W, A100G, L106I
notes: murine mAb

binding result (human ASCL1): binds
B9: SC72.76 (antibody, V domains shown)
VH: QVQLKESGPGLVAPSQSLSITCTVSDFSLTNYAVHWVRQSPGKGLEWLGVIWSDGNTDYNAPFISRLSISKDNSKSQVFFKMNSLQADDTAIYYCASYGDSAYWGQGTLVTVSA
VL: DIVLTQSPASLTVSLGQRATISCRASQSVRTSNYSYMHWYQQKPGQPPKLLIKYASNLESGVPARFSGSGSGTDFTLNIHPVEEEDTATYYCQHHWEIPFTFGGGTKLEIK
notes: murine mAb

binding result (human DLL3): binds
B10: SC16.140 (antibody, V domains shown)
VH: QVQLQQSGPELVRPGASVKMSCKASGYTFTSYWMHWVKQRPGQGLEWIGMIDPSNSETRLNQKFKDKATLNVDKSSNTAYMQLSSLTSEDSAVYYCAVMDYYFDYWGQGTTLTVSS
VL: DIVLTQSLASLAVSLGQRATISCRASKSVSTSGYSYMHWYQQKPGQPPKLLIYLASNLESGVPARFSGSGSGTDFTLNIHPVEDEDAATYYCQHSRELPFTFGGGTKLEIK
notes: murine mAb

binding result (human ASCL1): binds
B11: SC72.28 (antibody, V domains shown)
VH: DVQLQQSGAELVRPGALVKLSCKASGFNIKDYLIHWVKQRPEQGLEWIGCIDPENGNTIYDPRFQGKAKITSDTSSTTAYLRLTSLTSEDTAVYYCGRGGLDYWGQGTTLTVSS
VL: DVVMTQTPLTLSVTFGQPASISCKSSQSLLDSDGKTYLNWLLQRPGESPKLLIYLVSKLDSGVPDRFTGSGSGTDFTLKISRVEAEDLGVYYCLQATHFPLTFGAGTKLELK
notes: murine mAb

binding result (human ASCL1): binds
B12: SC72.52 (antibody, V domains shown)
VH: QVQLQQPGSVLVRPGASVKLSCKASGYTFTSYWMHWVKQRPGQGLEWIGEIYPNSGRTNYNEKFKGKATLTVDTSSSTAYVDLSSLTSEDSAVYYCHYYDDNYGYWGQGTTLTVSS
VL: DIVITQDELSNPVTSGESVSISCRSSKSLLYKDGKTYLNWFLQRPGQSPQLLIYLMSTRASGVSDRFSGSGSGTDFTLEISRVKAEDVGVYYCQQFVEYPLTFGAGTKLELK
notes: murine mAb

binding result (human DLL3): binds
B13: SC16.135 (antibody, V domains shown)
VH: QVQLQQSGAELVRPGTSVKVSCKASGYAFTNYLIEWVKQRPGQGLEWIGVINPGSGGTNSNEKFKAKATLTADKSSSTAYMQLSSLTSADSAVYFCARSDYDYAFYAMDYWGQGTSVTVSS
VL: DIKMTQSPSSMYASLGERVTITCKASQDINRYLSWFQQKPGKSPKTLIYRANRLVDGVPSRFSGSGSGQDYSLTISSLEYEDMGIYYCLQYDEFPFTFGSGTKLEIK
notes: murine mAb

binding result (human DLL3): binds
B14: SC16.141 (antibody, V domains shown)
VH: QVQLKQSGPGLVAPSQSLFITCTVSGFSLTSYEINWVRQPPGKGLEWLGVIWTGGSTNYNSALISRLSISKDNSKSLVFLKMNSLQTDDTAIYYCVRGVYAMDYWGQGTSVTVSS
VL: B13 VL with R31S
notes: murine mAb

binding result (human DLL3): binds
B15: SC16.143 (antibody, V domains shown)
VH: QVQLQQSGPELVKPGASVRISCKASGYTFTSYYIHWVKQRPGQGLEWIGWIYPGNGNTKYNEKFKGKATLTADKSSSTAYMQISSLTSEDSAVYFCARERWLLLWFAYWGQGTLVTVSA
VL: DVLMTQTPLSLPVSLGDQASISCRSSQSIVHSNGNTYLEWYLQKPGQSPKLLIYKVSNRFSGVPDRFSGSGSGTDFTLKISRVEAEDLGVYYCFQGSHVPLTFGAGTKLELK
notes: murine mAb

binding result (human ASCL1): binds
B16: SC72.63 (antibody, V domains shown)
VH: EVQLLQSGPELVKPGASVKMSCKASGYTLTDYNLHWVKQSHAKSLEWIGYINPYNGVTSYNQRFKGKATLTVNKSSSTAFMEFRSLTSEDSAVYYCVSLYYGDDPFACWGQGTLVTVST
VL: DIQMTQSPASLSASVGETVTMTCRASENIYSNLAWYQQKQGKSPQLLVYAATNLADDVPSRFSGSGSGTQFSLKINSLQPEDFGIYYCHHFYGSPLTFGAGTKLELK
notes: murine mAb

binding result (human DLL3): binds
B17: SC16.137 (antibody, V domains shown)
VH: EVQLVESGGDLVKPGGSLKLSCAASGFTFSSYGMSWVRQTPDKRLEWVATISSGGSYTYYPDSVKGRFTISRDNAKNTLYLQMSSLKSEDTAMYYCARRRADAMDYWGQGTSVTVSS
VL: QIVLTQSPAIMSASLGEEITLTCSASSSVSYMHWYQQKSGTSPKLLIYSTSNLASGVPSRFSGSGSGTFYSLTISSVEAEDAADYYCHQWSSYHTFGGGTKLEIKR
notes: murine mAb

binding result (human DLL3): binds
B18: SC16.131 (antibody, V domains shown)
VH: QVQLKESGPGLVAPSQSLSITCTVSGFSLTNYGVHWVRQPPGKGLEWLGVIWAGGITNYNSALMSRLSISEDNSKSQVFLKMNSLQTDDTAMYYCARNLGPYAMDYWGQGTSVTVSS
VL: DIQMNQSPSSLSASLGDTITITCHVSQNINVWLSWYQQKPGNIPKLLIQKASNLHTGVPSRFSGSGSGTGFTLTISSLQPEDIATYYCQQGQSYPFTFGSGTKLEIK
notes: murine mAb

binding result (human DLL3): binds
B19: SC16.15 (antibody, V domains shown)
VH: QVQLQQSGAELAKPGASVKMSCKASGYTFTRYWIHWIKQRPGQGLEWIGYINPTTVYTEFNQNFKDKATLTADKSSTTASMQLSSLTSEDSAVYYCARGGSNFFDYWGQGTTLTVSS
VL: DIQMTQSPASLAASVGETVAITCRASENIYYNLAWYQQKQGKSPQLLIYTANSLEDGVPSRFSGSGSGTQYSLKINSMQPEDSATYFCKQAYDVPPTFGGGTKLEIK
notes: murine mAb
